In the nanobody polyreactivity screen of Harvey et al. (2022):

Assay: yeast display, Sf9 membrane polyspecificity reagent, FACS + sequencing; frameworks hold sequencing errors
Procedure, shortened: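 A synthetic nanobody library was expressed on Saccharomyces cerevisiae BJ5465 by galactose induction for 36–48 hours. The library was stained for 1 hour at 4 °C with 10% biotinylated, detergent-solubilized Sf9 membrane reagent and enriched with streptavidin microbeads before FACS. Low and high (top ~1%) gates were set on anti-HA fluorescence for expression and streptavidin fluorescence for reagent binding, and each polyreactivity label reflects the gate of origin.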

Row | Sequence | polyreactivity (PSR sort gate)
1 | QVQLVESGGGLVQAGGSLRLSCAASGSIFYRYAMGWYRQAPGKERELVAGISWTGGTYYADSVKGRFTISRDNAKNTVYLQMNSLKPEDTAVYYCAATIWIAYRGWYSDYNYWGQGTQVTVSS | low polyreactivity
2 | QVQLVESGGGLVQAGGSLRLSCAASGSIFYRYAMGWYRQAPGKEWELVAAISYSGGSTYYADSVKGRFPISRDNAKNTVYVQMNSLKPEDTAVNYCATDYPPPISDYSRYYGYGYWGQGTQVTVSS | low polyreactivity
3 | QVQLVESGGGLVQAGGSLRLSCAASGSIFYSNAMGWYRQAPGKEREFVAAISAGGGSTYYADSVKGRFTISRDNAKNTVYLQMNSLKPEDTAVYYCAAQPYKIIYPYDYWGQGTQVTVSS | low polyreactivity
4 | QVQLVESGGGLVQAGGSLRLSCAASGSIFYSNAMGWYRQAPGKERELVAAIRTSAGSTYYADSVKGRFTISRDYAKNTVYLQMTSLKPEDTAVYYCAAVTTYYYYDVTDYAYEYYYWGQGTQVTVSS | low polyreactivity
5 | QVQLVESGGGLVQAGGSLRLSCAASGSIFYSNAMGWYRQAPGKERELVAAISDGGTSTYYADSVKGRFTISRDNAKNTVYFQMNSLKPEDTAVYYCAAESTLQDWNWYKYYYWGQGTQVTVSS | low polyreactivity
6 | QVQLVESGGGLVQAGGSLRLSCAASGSIFYSNAMGWYRQAPGKERELVAAISDGGTSTYYADSVKGRFTISRDNAKNTVYLQMNSLKPEDTAVYYCAAESTLQDWNWYKYYYWGQGTQVTVSS | low polyreactivity
7 | QVQLVESGGGLVQAGGSLRLSCAASGSIFYSNVMGWYRQAPGKERELVAAIRYSGVGTYYADSVKGRFTISRDNAKNTVYLLMNSLKPEDTAVYYCNAVTKVGYLRRRDYWGQGTKVTVSS | low polyreactivity
8 | QVQLVESGGGLVQAGGSLRLSCAASGSIFYSYAMGWYRQAPGKDRELVARITSSTGRTYYADSVKGRFTISRDNAKNTVYLQMNSLKPEDTAVYYCAARSASRSMDYWGQGTQVTVSS | high polyreactivity
9 | QVQLVESGGGLVQAGGSLRLSCAASGSIFYSYAMGWYRQAPGKERELVAAISWDASTYYADSVKGRFTISRDNAKNTVYLQMNSLKPEDTAVYFCNADIPYYFVYDAYDYWGQGTQVTVSS | low polyreactivity
10 | QVQLVESGGGLVQAGGSLRLSCAASGSIFYSYAMGWYRQAPGKERELVAAISYSSGSTYYADSVKGRFTISRDNAKNTVYLQMNSLKPEDTAVYDCAAEGNGWQVDVTEVGEYDSWGQGTQVTVSS | high polyreactivity
11 | QVQLVESGGGLVQAGGSLRLSCAASGSIFYSYAMGWYRQAPGKERELVADITITGSTYYADSVKGRFTISRDNAKNTVYLQMNSLKPEDTAVYYCDAVLAPGGYDYWGQGTQVTVSS | low polyreactivity
12 | QVQLVESGGGLVQAGGSLRLSCAASGSIFYSYAMGWYRQAPGKERELVAVITRGGSTNYADSVKGRFTISRDNAKNTVYLQMNSLKPEDTAVYYCNKDRYGKVFRYPPYYRSSPYDYWGQGTQVTVSS | high polyreactivity
13 | QVQLVESGGGLVQAGGSLRLSCAASGSIFYTNAMGWDRQAPGKERELVATITSSTGSTNYADSVKGRFTISRDNAKNTVYLQMNSLKPEDTAVYYCAKRDGYWVYYQMDYWGQGTQVTVSS | low polyreactivity
14 | QVQLVESGGGLVQAGGSLRLSCAASGSIFYTNVRGWYRQAPGKAREFVAAITGGGGSTYYADSVKGRFTISRDNAKNTVYLQMNSLKPEDTAVYYCATKAKPRSGYNYWGQGTQVTVSS | low polyreactivity
15 | QVQLVESGGGLVQAGGSLRLSCAASGSIFYTYAKGWYRQAPGKQRELVAGISWSGSDTYYADSVKGRFTISRDNAKNTVYLQMNSLKPEDTAVYYCNAETSTRKNFGYDYWGQGTQVTVSS | low polyreactivity
16 | QVQLVESGGGLVQAGGSLRLSCAASGSIFYTYAMGWSRQAPGKEREFVAAITSSGGSTYYADSVKGRFTISRDNAKNTVYLQMNSLKPEDTAVYYCAADSGSTSEYEYWGQGTQVTVSS | low polyreactivity
17 | QVQLVESGGGLVQAGGSLRLSCAASGSIFYTYAMGWYRQAPGKEREFVASITYRGSNTYYADSVKGRFTISRDNAKNTVYLQMNSLKPEDTAVYYCAADSFYYRPEYDYWGQGTKVTVSS | low polyreactivity
